Patent publication US20260248972A1, “DUAL RECEPTOR TARGETING RADIOLIGANDS AND USES THEREOF RELATED APPLICATIONS” (priority 2022, published 2026)

Test: in vivo
Details: BALB/c nude, mouse, in vivo, iv, total radioactivity
Protocol: To a 0.5 M NaOAc buffer (20-50 μL, pH=4.5) was added 4 μL of exemplary or comparator compound in DMSO stock solution (2000 μM) and 2 mCi ^177Lu (ITM Isotope Technologies Munich), the resulting mixture was heated to 95° C. for 15 min. The resulting product was analyzed by radio-TLC and radio-HPLC (column: Shim-pack GIST 5 μm 4.6*150 mm; buffer A: 0.2% formic acid H2O; buffer B: 0.1% formic acid acetonitrile; flow rate: 1 mL/min; gradient: 0-5 min: 10% B to 95% B; then 5-8 min: 95% B). The labelled products were used immediately or diluted by a PBS buffer containing freshly added 3 mg/mL ascorbate.
All animal care and experimental procedure were performed by following the animal protocols approved by the ethics committee of China Institute of Radiation Protection. The BALB/c nude mice (Charles River, Beijing) were utilized for these studies. Mice were below 5 per cage in sterile, microisolator cages under temperature- and humidity-controlled conditions with a 12 h light/12 h dark schedule and fed irradiated rodent chow and reverse osmosis (RO) sterile water ad libitum. In preparation for tumor cell inoculations, mice were anesthetized with isoflurane (RWD Life Science Inc.) at an induction rate of 4% and maintained at a rate of 2.5% with 0.4 L oxygen delivered via precision vaporizer and a non-rebreathing apparatus. These mice received subcutaneous rear flank injections of approximately 4×10^6 AR42J cells ([…] pancreatic cancer cell line) suspended in 200 μL of phosphate-buffered saline (PBS) and Matrigel (Corning) (1/1). Xenografted tumors were allowed to grow for ~2-4 weeks post-inoculation and ranged in mass from 0.05 to 0.50 g (average tumor size, 0.20 g). […] The mice were euthanized, and the tissues and organs were excised from the animals at 4, 24 and 72 h post-injection. The tissues and organs were weighed, counted in a PerkinElmer 2480 WIZARD2 γ counter, and the percent injected dose (% ID) and % ID/g of each organ or tissue were calculated.

C[C@@H](O)[C@H](NC(=O)[C@@H]1CSSC[C@H](NC(=O)[C@@H](Cc2ccccc2)NC(=O)COCCOCCNC(=O)[C@H](CCCCNC(=O)c2cccc(NC(=O)N[C@@H]3CN(C4CCCCC4)c4ccccc4N(CC(=O)C(C)(C)C)C3=O)c2)NC(=O)COCCOCCNC(=O)CN2CCN(CC(=O)O)CCN(CC(=O)O)CCN(CC(=O)O)CC2)C(=O)N[C@@H](Cc2ccc(O)cc2)C(=O)N[C@H](Cc2c[nH]c3ccccc23)C(=O)N[C@@H](CCCCN)C(=O)N[C@@H]([C@@H](C)O)C(=O)N1)C(=O)O [Compound I-52, DOTA-OEG-K(Z360)-OEG-f[CYwKTC]T-OH]
tissue to tissue ratio at 24 h (T/K Tumor/Kidney ratio): 0.9
tissue to tissue ratio at 24 h (T/L Tumor/Liver ratio): 2.2
tissue to tissue ratio at 24 h (T/P Tumor/Pancreas ratio): 14
tissue to tissue ratio at 24 h (T/Sp Tumor/Spleen ratio): 36
tissue to tissue ratio at 24 h (T/St Tumor/Stomach ratio): 2.4
tissue uptake at 24 h (uptake Kidney): 14 %ID/g
tissue uptake at 24 h (uptake Liver): 5.7 %ID/g
tissue uptake at 24 h (uptake Pancreas): 0.9 %ID/g
tissue uptake at 24 h (uptake Spleen): 0.3 %ID/g
tissue uptake at 24 h (uptake Stomach): 5.1 %ID/g
tissue uptake at 24 h (uptake Tumor): 12.4 %ID/g

C[C@@H](O)[C@H](NC(=O)[C@@H]1CSSC[C@H](NC(=O)[C@@H](Cc2ccccc2)NC(=O)COCCOCCNC(=O)COCCOCCNC(=O)[C@H](CCCCNC(=O)c2cccc(NC(=O)N[C@@H]3CN(C4CCCCC4)c4ccccc4N(CC(=O)C(C)(C)C)C3=O)c2)NC(=O)CN2CCN(CC(=O)O)CCN(CC(=O)O)CCN(CC(=O)O)CC2)C(=O)N[C@@H](Cc2ccc(O)cc2)C(=O)N[C@H](Cc2c[nH]c3ccccc23)C(=O)N[C@@H](CCCCN)C(=O)N[C@@H]([C@@H](C)O)C(=O)N1)C(=O)O [Compound 177Lu-I-39, metal not drawn]
tissue uptake at 4 h (% ID/g Adrenal gland): 1.33 %ID/g
tissue uptake at 24 h (% ID/g Adrenal gland): 1.06 %ID/g
tissue uptake at 72 h (% ID/g Adrenal gland): 0.3 %ID/g
tissue uptake at 4 h (% ID/g Blood): 0.91 %ID/g
tissue uptake at 24 h (% ID/g Blood): 0.33 %ID/g
tissue uptake at 72 h (% ID/g Blood): 0.06 %ID/g
tissue uptake at 4 h (% ID/g Fat): 3.38 %ID/g
tissue uptake at 24 h (% ID/g Fat): 1.07 %ID/g
tissue uptake at 72 h (% ID/g Fat): 0.27 %ID/g
tissue uptake at 4 h (% ID/g Femur): 0.9 %ID/g
tissue uptake at 24 h (% ID/g Femur): 0.42 %ID/g
tissue uptake at 72 h (% ID/g Femur): 0.1 %ID/g
tissue uptake at 4 h (% ID/g Heart): 0.84 %ID/g
tissue uptake at 24 h (% ID/g Heart): 0.38 %ID/g
tissue uptake at 72 h (% ID/g Heart): 0.12 %ID/g
tissue uptake at 4 h (% ID/g Intestine): 1.8 %ID/g
tissue uptake at 24 h (% ID/g Intestine): 0.76 %ID/g
tissue uptake at 72 h (% ID/g Intestine): 0.24 %ID/g
tissue uptake at 4 h (% ID/g Kidney): 25.7 %ID/g
tissue uptake at 24 h (% ID/g Kidney): 12 %ID/g
tissue uptake at 72 h (% ID/g Kidney): 3.2 %ID/g
tissue uptake at 4 h (% ID/g Liver): 6.35 %ID/g
tissue uptake at 24 h (% ID/g Liver): 2.78 %ID/g
tissue uptake at 72 h (% ID/g Liver): 1.24 %ID/g
tissue uptake at 4 h (% ID/g Lung): 3.81 %ID/g
tissue uptake at 24 h (% ID/g Lung): 1.85 %ID/g
tissue uptake at 72 h (% ID/g Lung): 0.87 %ID/g
tissue uptake at 4 h (% ID/g Muscle): 0.3 %ID/g
tissue uptake at 24 h (% ID/g Muscle): 0.13 %ID/g
tissue uptake at 72 h (% ID/g Muscle): 0.02 %ID/g
tissue uptake at 4 h (% ID/g Pancreas): 3.71 %ID/g
tissue uptake at 24 h (% ID/g Pancreas): 0.94 %ID/g
tissue uptake at 72 h (% ID/g Pancreas): 0.15 %ID/g
tissue uptake at 4 h (% ID/g Spleen): 0.76 %ID/g
tissue uptake at 24 h (% ID/g Spleen): 0.31 %ID/g
tissue uptake at 72 h (% ID/g Spleen): 0.07 %ID/g
tissue uptake at 4 h (% ID/g Stomach): 6.28 %ID/g
tissue uptake at 24 h (% ID/g Stomach): 4.63 %ID/g
tissue uptake at 72 h (% ID/g Stomach): 1.26 %ID/g
tissue uptake at 4 h (% ID/g Tumor): 41.8 %ID/g
tissue uptake at 24 h (% ID/g Tumor): 27.5 %ID/g
tissue uptake at 72 h (% ID/g Tumor): 9.48 %ID/g

C[C@@H](O)[C@H](NC(=O)[C@@H]1CSSC[C@H](NC(=O)[C@@H](Cc2ccccc2)NC(=O)CN2CCN(CC(=O)O)CCN(CC(=O)O)CCN(CC(=O)O)CC2)C(=O)N[C@@H](Cc2ccc(O)cc2)C(=O)N[C@H](Cc2c[nH]c3ccccc23)C(=O)N[C@@H](CCCCN)C(=O)N[C@@H]([C@@H](C)O)C(=O)N1)C(=O)O [^177Lu-C-1, metal not drawn, reference compound]
tissue uptake at 4 h (% ID/g Adrenal gland): 8.73 %ID/g
tissue uptake at 24 h (% ID/g Adrenal gland): 0.15 %ID/g
tissue uptake at 72 h (% ID/g Adrenal gland): 0.13 %ID/g
tissue uptake at 4 h (% ID/g Blood): 0.02 %ID/g
tissue uptake at 24 h (% ID/g Blood): 0.01 %ID/g
tissue uptake at 72 h (% ID/g Blood): 0.01 %ID/g
tissue uptake at 4 h (% ID/g Femur): 0.07 %ID/g
tissue uptake at 24 h (% ID/g Femur): 0.11 %ID/g
tissue uptake at 72 h (% ID/g Femur): 0.08 %ID/g
tissue uptake at 4 h (% ID/g Heart): 0.06 %ID/g
tissue uptake at 24 h (% ID/g Heart): 0.05 %ID/g
tissue uptake at 72 h (% ID/g Heart): 0.04 %ID/g
tissue uptake at 4 h (% ID/g Intestine): 0.2 %ID/g
tissue uptake at 24 h (% ID/g Intestine): 0.46 %ID/g
tissue uptake at 72 h (% ID/g Intestine): 0.11 %ID/g
tissue uptake at 4 h (% ID/g Kidney): 3.88 %ID/g
tissue uptake at 24 h (% ID/g Kidney): 1.21 %ID/g
tissue uptake at 4 h (% ID/g Liver): 0.1 %ID/g
tissue uptake at 24 h (% ID/g Liver): 0.07 %ID/g
tissue uptake at 72 h (% ID/g Liver): 0.06 %ID/g
tissue uptake at 4 h (% ID/g Lung): 0.63 %ID/g
tissue uptake at 24 h (% ID/g Lung): 0.32 %ID/g
tissue uptake at 72 h (% ID/g Lung): 0.21 %ID/g
tissue uptake at 4 h (% ID/g Muscle): 0.01 %ID/g
tissue uptake at 24 h (% ID/g Muscle): 0.02 %ID/g
tissue uptake at 72 h (% ID/g Muscle): 0.01 %ID/g
tissue uptake at 4 h (% ID/g Pancreas): 0.02 %ID/g
tissue uptake at 24 h (% ID/g Pancreas): 0.16 %ID/g
tissue uptake at 72 h (% ID/g Pancreas): 0.03 %ID/g
tissue uptake at 4 h (% ID/g Spleen): 0.08 %ID/g
tissue uptake at 24 h (% ID/g Spleen): 0.04 %ID/g
tissue uptake at 72 h (% ID/g Spleen): 0.05 %ID/g
tissue uptake at 4 h (% ID/g Stomach): 1.18 %ID/g
tissue uptake at 24 h (% ID/g Stomach): 0.59 %ID/g
tissue uptake at 72 h (% ID/g Stomach): 0.21 %ID/g
tissue uptake at 4 h (% ID/g Tumor): 14 %ID/g
tissue uptake at 24 h (% ID/g Tumor): 5.76 %ID/g
tissue uptake at 72 h (% ID/g Tumor): 4.33 %ID/g

C[C@@H](O)[C@H](NC(=O)[C@@H]1CSSC[C@H](NC(=O)[C@@H](Cc2ccccc2)NC(=O)COCCOCCNC(=O)[C@H](CCCCNC(=O)CC[C@H](NC(=O)CNC(=O)c2cccc(NC(=O)N[C@@H]3CN(C4CCCCC4)c4ccccc4N(CC(=O)C(C)(C)C)C3=O)c2)C(=O)O)NC(=O)COCCOCCNC(=O)CC[C@H](NC(=O)CC[C@H](NC(=O)CN2CCN(CC(=O)O)CCN(CC(=O)O)CCN(CC(=O)O)CC2)C(=O)O)C(=O)O)C(=O)N[C@@H](Cc2ccc(O)cc2)C(=O)N[C@H](Cc2c[nH]c3ccccc23)C(=O)N[C@@H](CCCCN)C(=O)N[C@@H]([C@@H](C)O)C(=O)N1)C(=O)O [^177Lu-1-14, metal not drawn]
tissue uptake at 4 h (% ID/g Adrenal gland): 3.55 %ID/g
tissue uptake at 24 h (% ID/g Adrenal gland): 2.72 %ID/g
tissue uptake at 72 h (% ID/g Adrenal gland): 1.44 %ID/g
tissue uptake at 4 h (% ID/g Blood): 1.32 %ID/g
tissue uptake at 24 h (% ID/g Blood): 0.09 %ID/g
tissue uptake at 72 h (% ID/g Blood): 0.02 %ID/g
tissue uptake at 4 h (% ID/g Femur): 0.49 %ID/g
tissue uptake at 24 h (% ID/g Femur): 0.4 %ID/g
tissue uptake at 72 h (% ID/g Femur): 0.31 %ID/g
tissue uptake at 4 h (% ID/g Heart): 0.8 %ID/g
tissue uptake at 24 h (% ID/g Heart): 0.17 %ID/g
tissue uptake at 72 h (% ID/g Heart): 0.19 %ID/g
tissue uptake at 4 h (% ID/g Intestine): 0.6 %ID/g
tissue uptake at 24 h (% ID/g Intestine): 1.25 %ID/g
tissue uptake at 72 h (% ID/g Intestine): 0.37 %ID/g
tissue uptake at 4 h (% ID/g Kidney): 48.2 %ID/g
tissue uptake at 24 h (% ID/g Kidney): 68.6 %ID/g
tissue uptake at 72 h (% ID/g Kidney): 24.3 %ID/g
tissue uptake at 4 h (% ID/g Liver): 3.31 %ID/g
tissue uptake at 24 h (% ID/g Liver): 2.24 %ID/g
tissue uptake at 72 h (% ID/g Liver): 1.28 %ID/g
tissue uptake at 4 h (% ID/g Lung): 1.32 %ID/g
tissue uptake at 24 h (% ID/g Lung): 0.72 %ID/g
tissue uptake at 72 h (% ID/g Lung): 0.95 %ID/g
tissue uptake at 4 h (% ID/g Muscle): 0.17 %ID/g
tissue uptake at 24 h (% ID/g Muscle): 0.17 %ID/g
tissue uptake at 72 h (% ID/g Muscle): 0.11 %ID/g
tissue uptake at 4 h (% ID/g Pancreas): 2.11 %ID/g
tissue uptake at 24 h (% ID/g Pancreas): 3.37 %ID/g
tissue uptake at 72 h (% ID/g Pancreas): 3.14 %ID/g
tissue uptake at 4 h (% ID/g Spleen): 0.64 %ID/g
tissue uptake at 24 h (% ID/g Spleen): 0.56 %ID/g
tissue uptake at 72 h (% ID/g Spleen): 2.17 %ID/g
tissue uptake at 4 h (% ID/g Stomach): 3.68 %ID/g
tissue uptake at 24 h (% ID/g Stomach): 2.25 %ID/g
tissue uptake at 72 h (% ID/g Stomach): 2.99 %ID/g
tissue uptake at 4 h (% ID/g Tumor): 30.9 %ID/g
tissue uptake at 24 h (% ID/g Tumor): 14.9 %ID/g
tissue uptake at 72 h (% ID/g Tumor): 18 %ID/g
